In the Human Domainome abundance scans (Beltran et al. 2025):
± gives the uncertainty stated by the source.

B1: MEF2-activating motif and SAP domain-containing transcriptional regulator, residues 170 to 204; numbered along this chain, Q6ZN01 (parent)
chain: LKLEELTVSELRQQLRLRGLPVSGTKSMLLERMRG
B2: Storkhead-box protein 2, residues 64 to 141; numbered along this chain, Q9P2F5 (parent)
chain: SPISQSQFIPLGEILCLAISAMNSARKPVTQEALMEHLTTCFPGVPTPSQEILRHTLNTLVRERKIYPTPDGYFIVTP

Variants of: B1
Test: abundance fitness (aPCA) (normalised: wild type 0, dead -1); higher = more abundant; growth selection in yeast, the domain comes from the species named
Conditions: Homo sapiens

Going from G19K to G19V, the abundance fitness falls from -0.227 ± 0.086 to -1.02 ± 0.1.

Compared with L17E, S9N is higher in abundance fitness: -0.089 ± 0.066 for the first, 0.182 ± 0.19 for the second.

Compared with V8H, V8L is higher in abundance fitness: -0.486 ± 0.092 for the first, -0.099 ± 0.055 for the second.

V8W and E5P are within error of each other in abundance fitness: -0.03 ± 0.18 for the first, -0.335 ± 0.19 for the second.

First: E5G
Second: L15A
The abundance fitness of the first is lower: -0.359 ± 0.1 for the first, 0.11 ± 0.068 for the second.

Compared with L15K, L15W is lower in abundance fitness: -0.361 ± 0.099 for the first, -1 ± 0.16 for the second.

L15E and L15N are within error of each other in abundance fitness: -0.38 ± 0.099 for the first, -0.308 ± 0.14 for the second.

E10I and T25G are within error of each other in abundance fitness: -0.781 ± 0.5 for the first, -0.27 ± 0.059 for the second.

First: T25E
Second: T25D
The abundance fitness of the first is lower: -0.051 ± 0.06 for the first, 0.215 ± 0.096 for the second.

L11S and L11G are within error of each other in abundance fitness: -0.542 ± 0.07 for the first, -0.657 ± 0.063 for the second.

E31Y and R32N are within error of each other in abundance fitness: -0.124 ± 0.18 for the first, -0.02 ± 0.19 for the second.

R32V and V22I are within error of each other in abundance fitness: -0.368 ± 0.12 for the first, -0.262 ± 0.24 for the second.

V22N and G24E are within error of each other in abundance fitness: -0.407 ± 0.17 for the first, -0.335 ± 0.084 for the second.

G24M and L29W are within error of each other in abundance fitness: -0.768 ± 0.13 for the first, -0.594 ± 0.11 for the second.

L29R and R12D are within error of each other in abundance fitness: -0.616 ± 0.072 for the first, -0.488 ± 0.11 for the second.

R12L and L6D are within error of each other in abundance fitness: -0.523 ± 0.074 for the first, -0.356 ± 0.14 for the second.

L6I and L3P are within error of each other in abundance fitness: -0.266 ± 0.13 for the first, -0.14 ± 0.087 for the second.

Going from L3W to M28L, the abundance fitness rises from -0.434 ± 0.089 to -0.106 ± 0.058.

Going from M28G to M28P, the abundance fitness falls from -0.512 ± 0.072 to -0.973 ± 0.38.

S23V and K2S are within error of each other in abundance fitness: -0.16 ± 0.092 for the first, -0.201 ± 0.11 for the second.

First: L30E
Second: L30G
The abundance fitness of the first is higher: -0.251 ± 0.091 for the first, -0.493 ± 0.09 for the second.

Going from R34N to R34M, the abundance fitness falls from 0.21 ± 0.12 to -0.416 ± 0.49.

R34I and R16Q are within error of each other in abundance fitness: -0.323 ± 0.29 for the first, -0.207 ± 0.18 for the second.

R16G and R16L are within error of each other in abundance fitness: -0.081 ± 0.054 for the first, -0.027 ± 0.067 for the second.

E4I and E4F are within error of each other in abundance fitness: -0.464 ± 0.23 for the first, -0.679 ± 0.1 for the second.

First: T7P
Second: T7W
The abundance fitness of the first is higher: -0.227 ± 0.15 for the first, -0.518 ± 0.099 for the second.

Compared with Q14A, Q14G is lower in abundance fitness: 0.135 ± 0.084 for the first, -0.35 ± 0.063 for the second.

L1K and R18E are within error of each other in abundance fitness: -0.05 ± 0.22 for the first, -0.14 ± 0.052 for the second.

First: R18T
Second: R18A
The abundance fitness of the first is lower: -0.239 ± 0.12 for the first, -0.009 ± 0.085 for the second.

L20R and P21M are within error of each other in abundance fitness: -0.914 ± 0.095 for the first, -0.655 ± 0.23 for the second.

P21T and P21G are within error of each other in abundance fitness: -0.235 ± 0.096 for the first, -0.297 ± 0.048 for the second.

Compared with P21Y, S27T is higher in abundance fitness: -0.909 ± 0.11 for the first, -0.108 ± 0.078 for the second.

S27W and S27H are within error of each other in abundance fitness: -0.23 ± 0.06 for the first, -0.246 ± 0.091 for the second.

Q13V and Q13D are within error of each other in abundance fitness: -0.11 ± 0.067 for the first, -0.075 ± 0.09 for the second.

Q13W and Q13R are within error of each other in abundance fitness: -0.28 ± 0.072 for the first, -0.23 ± 0.095 for the second.

Q13A and K26L are within error of each other in abundance fitness: -0.285 ± 0.11 for the first, -0.159 ± 0.1 for the second.

First: K26G
Second: M33S
The abundance fitness of the first is lower: -0.78 ± 0.1 for the first, -0.34 ± 0.065 for the second.

M33N and M33F are within error of each other in abundance fitness: -0.613 ± 0.34 for the first, -0.516 ± 0.091 for the second.

Variants of: B2
Test: as above
Conditions: Homo sapiens

I75H and I75C are within error of each other in abundance fitness: -0.172 ± 0.17 for the first, 0.017 ± 0.082 for the second.

I75L and I75F are within error of each other in abundance fitness: -0.017 ± 0.039 for the first, -0.109 ± 0.073 for the second.

I75S and I75Y are within error of each other in abundance fitness: 0.038 ± 0.049 for the first, -0.013 ± 0.054 for the second.

I75V and I75N are within error of each other in abundance fitness: 0.024 ± 0.051 for the first, -0.177 ± 0.15 for the second.

I75A and I75Q are within error of each other in abundance fitness: -0.04 ± 0.057 for the first, -0.026 ± 0.059 for the second.

First: I75P
Second: I75M
The abundance fitness of the first is lower: -0.039 ± 0.051 for the first, 0.1 ± 0.058 for the second.

I75G and I75W are within error of each other in abundance fitness: -0.033 ± 0.04 for the first, -0.057 ± 0.049 for the second.

First: I75K
Second: V76C
The abundance fitness of the first is lower: -0.219 ± 0.1 for the first, 0.03 ± 0.069 for the second.

V76H and V76F are within error of each other in abundance fitness: -0.114 ± 0.092 for the first, -0.012 ± 0.096 for the second.

V76E and V76Q are within error of each other in abundance fitness: 0.037 ± 0.064 for the first, -0.007 ± 0.078 for the second.

Going from V76T to V76I, the abundance fitness falls from -0.03 ± 0.057 to -0.363 ± 0.12.

V76K and V76S are within error of each other in abundance fitness: 0.032 ± 0.099 for the first, 0.092 ± 0.044 for the second.

V76N and V76P are within error of each other in abundance fitness: 0.05 ± 0.078 for the first, 0.001 ± 0.051 for the second.

V76M and V76Y are within error of each other in abundance fitness: 0.035 ± 0.075 for the first, -0.087 ± 0.11 for the second.

V76G and V76W are within error of each other in abundance fitness: -0.011 ± 0.036 for the first, -0.028 ± 0.051 for the second.

V76D and V76A are within error of each other in abundance fitness: -0.102 ± 0.089 for the first, 0.001 ± 0.041 for the second.

E63S and E63R are within error of each other in abundance fitness: -0.018 ± 0.033 for the first, -0.015 ± 0.029 for the second.

E63W and E63Y are within error of each other in abundance fitness: -0.075 ± 0.049 for the first, -0.033 ± 0.13 for the second.

E63V and E63T are the same in abundance fitness: -0.049 ± 0.047 for the first, -0.049 ± 0.053 for the second.

K65I and K65S are within error of each other in abundance fitness: -0.21 ± 0.21 for the first, -0.082 ± 0.058 for the second.

First: K65D
Second: K65V
The abundance fitness of the first is lower: -0.443 ± 0.089 for the first, 0 ± 0.048 for the second.

Compared with K65N, K65F is higher in abundance fitness: -0.493 ± 0.31 for the first, -0.084 ± 0.093 for the second.

Going from K65Q to K65W, the abundance fitness falls from 0.078 ± 0.067 to -0.209 ± 0.047.

Compared with K65C, K65P is lower in abundance fitness: -0.208 ± 0.072 for the first, -0.967 ± 0.1 for the second.

K65H and K65L are within error of each other in abundance fitness: 0.013 ± 0.084 for the first, -0.06 ± 0.039 for the second.

Compared with K65R, K65M is lower in abundance fitness: -0.031 ± 0.038 for the first, -0.171 ± 0.064 for the second.

Going from K65G to K65T, the abundance fitness rises from -0.541 ± 0.037 to -0.03 ± 0.063.

K65Y and K65A are within error of each other in abundance fitness: -0.154 ± 0.14 for the first, -0.134 ± 0.054 for the second.

K65E and R64M are within error of each other in abundance fitness: -0.167 ± 0.079 for the first, -0.138 ± 0.079 for the second.

Compared with R64C, R64I is lower in abundance fitness: -0.128 ± 0.068 for the first, -0.619 ± 0.14 for the second.

R64H and R64G are within error of each other in abundance fitness: 0.039 ± 0.12 for the first, 0.031 ± 0.034 for the second.

R64K and R64Q are within error of each other in abundance fitness: 0.061 ± 0.11 for the first, -0.043 ± 0.099 for the second.

R64S and R64Y are within error of each other in abundance fitness: -0.021 ± 0.045 for the first, -0.174 ± 0.17 for the second.

First: R64D
Second: R64F
The abundance fitness of the first is higher: -0.029 ± 0.09 for the first, -0.286 ± 0.082 for the second.

Compared with R64A, R64V is lower in abundance fitness: -0.029 ± 0.041 for the first, -0.22 ± 0.049 for the second.

First: R64W
Second: R64L
The abundance fitness of the first is lower: -0.211 ± 0.041 for the first, -0.124 ± 0.044 for the second.

R64N and R64E are within error of each other in abundance fitness: -0.043 ± 0.13 for the first, 0.112 ± 0.075 for the second.

First: R64P
Second: G72R
The abundance fitness of the first is lower: -1.09 ± 0.14 for the first, -0.32 ± 0.032 for the second.

G72V and G72P are within error of each other in abundance fitness: -0.568 ± 0.051 for the first, -0.614 ± 0.059 for the second.

Going from G72M to G72Y, the abundance fitness falls from -0.209 ± 0.081 to -0.527 ± 0.23.

Going from G72E to G72C, the abundance fitness falls from -0.078 ± 0.074 to -0.383 ± 0.077.

Compared with G72H, G72I is lower in abundance fitness: -0.293 ± 0.073 for the first, -0.613 ± 0.17 for the second.

G72Q and G72S are within error of each other in abundance fitness: -0.034 ± 0.05 for the first, -0.121 ± 0.04 for the second.

Compared with G72D, G72A is lower in abundance fitness: -0.033 ± 0.11 for the first, -0.304 ± 0.049 for the second.

Compared with G72L, G72T is higher in abundance fitness: -0.461 ± 0.048 for the first, -0.132 ± 0.095 for the second.

For G72K, the abundance fitness was -0.272 ± 0.14.
